Assay results taken from PMC4092090, “Investigation of a MMP-2 Activity-Dependent Anchoring Probe for Nuclear Imaging of Cancer” (PLoS ONE, 2014).
Read-outs that look alike come from different tables or passages of the source.

Key:
[1] = Effective dose estimation (OLINDA); conditions: estimated from mouse biodistribution data (non-decay-corrected time radioactivity curves) with OLINDA
Text: The effective dose of MDAP3000 was estimated using the area under the non-decay-corrected time radioactivity curves generated from the biodistribution data for each organ with the standard quantitation platform included in Organ Level Internal Dose Assessment software (OLINDA, Vanderbilt University).

[2] = system: HT1080 tumor bearing mice; design: species or system mouse (Balb/c nu-nu); conditions: mouse, in vivo, iv; for Radioactivity biodistribution, Blood / Radioactivity biodistribution, Heart / Radioactivity biodistribution, Intestine / Radioactivity biodistribution, Kidneys / Radioactivity biodistribution, Liver / Radioactivity biodistribution, Lung / Radioactivity biodistribution, Muscle / Radioactivity biodistribution, Pancreas / Radioactivity biodistribution, Spleen / Radioactivity biodistribution, Stomach / Radioactivity biodistribution, Tumor / T/B (tumor to blood ratio): 37 kBq
Procedure: Female Balb/c nu-nu mice (5 weeks old, Japan SLC, Inc., Shizuoka, Japan) were housed under a 12-h light/12-h dark cycle and given free access to food and water. HT1080 cells (5×10^6 cells/100 μl PBS (-)/mouse) were subcutaneously inoculated into the right hind leg of Balb/c nu-nu mice. Animals were used for experiments two weeks after inoculation when the mean tumor size was 5.7±2.2 mm along the major axis. […]3000 and […] (37 kBq, 100 μl in PBS including 3% bovine serum albumin and 0.1% Tween 80) were injected intravenously into the tail vein of tumor bearing mice. The mice were sacrificed at various post-injection time points (n = 3 for each time point), and the organs of interest including the tumor tissues were collected for determination of the weights. The radioactivity of each sample was measured with a NaI well-type scintillation counter. From fitting to the two phase decay curves for blood radioactivity data analyzed by GraphPad Prism 6 (GraphPad Software, San Diego, CA), whole body pharmacokinetic parameters such as blood half-lives, distribution volume, mean residence time and total clearance were calculated for each of the probes and the values compared. Simple pharmacokinetic analysis using a single tissue compartment model was applied to the biodistribution data to calculate rate constants (K1 and k2) for radioactivity transfer from blood to tumor and clearance from tumor to blood by PMOD version 3.2. In addition, MDAP3000 (7.4 MBq in 200 μl) was injected intravenously into the tail vein of tumor bearing mice for metabolite analysis in tumors excised 3, 6, and 24 hr post injection (n = 2 each). Tumor homogenates were prepared on ice and insoluble material was removed by centrifugation after methanol treatment. The resulting supernatant was analyzed by RP-HPLC.

[3] = system: HT1080 tumor bearing mice; design: species or system mouse (Balb/c nu-nu); conditions: mouse, in vivo, iv
Procedure: (§1) […]3000 and […] (37 kBq, 100 μl in PBS including 3% bovine serum albumin and 0.1% Tween 80) were injected intravenously into the tail vein of tumor bearing mice. The mice were sacrificed at various post-injection time points (n = 3 for each time point), and the organs of interest including the tumor tissues were collected for determination of the weights. The radioactivity of each sample was measured with a NaI well-type scintillation counter. From fitting to the two phase decay curves for blood radioactivity data analyzed by GraphPad Prism 6 (GraphPad Software, San Diego, CA), whole body pharmacokinetic parameters such as blood half-lives, distribution volume, mean residence time and total clearance were calculated for each of the probes and the values compared. Simple pharmacokinetic analysis using a single tissue compartment model was applied to the biodistribution data to calculate rate constants (K1 and k2) for radioactivity transfer from blood to tumor and clearance from tumor to blood by PMOD version 3.2. In addition, MDAP3000 (7.4 MBq in 200 μl) was injected intravenously into the tail vein of tumor bearing mice for metabolite analysis in tumors excised 3, 6, and 24 hr post injection (n = 2 each). Tumor homogenates were prepared on ice and insoluble material was removed by centrifugation after methanol treatment. The resulting supernatant was analyzed by RP-HPLC.

HT1080 tumor xenograft = system: HT1080 tumor xenograft; design: species or system mouse (Balb/c nu-nu); conditions: mouse, in vivo
Procedure: as §1

Substance: Palmitoyl-Dap(p-SCN-Bn-DTPA-^111In)-10-Adc-Gly-Pro-Leu-Gly-Val-Arg-Gly-Lys(ivDde)-PEG3000 [MDAP3000]
- Effective dose [1]: 5.08×10^−2 mSv/MBq
- Blood clearance (in words) [2]: rapid blood clearance
- Tumor accumulation (in words) [2]: high tumor accumulation
- Radioactivity biodistribution, Blood ([2]; 0.25 h): 44.98±2.53 % injected dose per gram
- Radioactivity biodistribution, Heart ([2]; 0.25 h): 9.26±0.86 % injected dose per gram
- Radioactivity biodistribution, Intestine ([2]; 0.25 h): 3.59±0.24 % injected dose per gram
- Radioactivity biodistribution, Kidneys ([2]; 0.25 h): 11.85±0.84 % injected dose per gram
- Radioactivity biodistribution, Liver ([2]; 0.25 h): 18.83±1.38 % injected dose per gram
- Radioactivity biodistribution, Lung ([2]; 0.25 h): 20.44±4.77 % injected dose per gram
- Radioactivity biodistribution, Muscle ([2]; 0.25 h): 1.72±0.76 % injected dose per gram
- Radioactivity biodistribution, Pancreas ([2]; 0.25 h): 3.91±0.33 % injected dose per gram
- Radioactivity biodistribution, Spleen ([2]; 0.25 h): 6.53±0.34 % injected dose per gram
- Radioactivity biodistribution, Stomach ([2]; 0.25 h): 0.48±0.04 % injected dose per organ
- Radioactivity biodistribution, Tumor ([2]; 0.25 h): 3.60±0.17 % injected dose per gram
- T/B (tumor to blood ratio) ([2]; 0.25 h): 0.08±0.01
- Radioactivity biodistribution, Blood ([2]; 1 h): 30.48±1.67 % injected dose per gram
- Radioactivity biodistribution, Heart ([2]; 1 h): 8.20±0.74 % injected dose per gram
- Radioactivity biodistribution, Intestine ([2]; 1 h): 5.85±0.11 % injected dose per gram
- Radioactivity biodistribution, Kidneys ([2]; 1 h): 10.60±0.38 % injected dose per gram
- Radioactivity biodistribution, Liver ([2]; 1 h): 18.45±0.81 % injected dose per gram
- Radioactivity biodistribution, Lung ([2]; 1 h): 15.92±0.58 % injected dose per gram
- Radioactivity biodistribution, Muscle ([2]; 1 h): 1.27±0.20 % injected dose per gram
- Radioactivity biodistribution, Pancreas ([2]; 1 h): 4.35±0.74 % injected dose per gram
- Radioactivity biodistribution, Spleen ([2]; 1 h): 5.65±0.98 % injected dose per gram
- Radioactivity biodistribution, Stomach ([2]; 1 h): 0.69±0.21 % injected dose per organ
- Radioactivity biodistribution, Tumor ([2]; 1 h): 5.49±0.53 % injected dose per gram
- T/B (tumor to blood ratio) ([2]; 1 h): 0.18±0.03
- Radioactivity biodistribution, Blood ([2]; 3 h): 15.33±0.81 % injected dose per gram
- Radioactivity biodistribution, Heart ([2]; 3 h): 6.70±0.59 % injected dose per gram
- Radioactivity biodistribution, Intestine ([2]; 3 h): 13.13±1.73 % injected dose per gram
- Radioactivity biodistribution, Kidneys ([2]; 3 h): 11.89±0.76 % injected dose per gram
- Radioactivity biodistribution, Liver ([2]; 3 h): 22.83±3.72 % injected dose per gram
- Radioactivity biodistribution, Lung ([2]; 3 h): 9.72±1.02 % injected dose per gram
- Radioactivity biodistribution, Muscle ([2]; 3 h): 1.49±0.15 % injected dose per gram
- Radioactivity biodistribution, Pancreas ([2]; 3 h): 5.25±0.57 % injected dose per gram
- Radioactivity biodistribution, Spleen ([2]; 3 h): 5.41±0.64 % injected dose per gram
- Radioactivity biodistribution, Stomach ([2]; 3 h): 1.17±0.82 % injected dose per organ
- Radioactivity biodistribution, Tumor ([2]; 3 h): 5.49±0.36 % injected dose per gram
- T/B (tumor to blood ratio) ([2]; 3 h): 0.36±0.04
- Radioactivity biodistribution, Blood ([2]; 6 h): 8.33±0.58 % injected dose per gram
- Radioactivity biodistribution, Heart ([2]; 6 h): 5.64±0.79 % injected dose per gram
- Radioactivity biodistribution, Intestine ([2]; 6 h): 14.08±2.39 % injected dose per gram
- Radioactivity biodistribution, Kidneys ([2]; 6 h): 11.40±1.18 % injected dose per gram
- Radioactivity biodistribution, Liver ([2]; 6 h): 17.61±2.53 % injected dose per gram
- Radioactivity biodistribution, Lung ([2]; 6 h): 5.56±0.75 % injected dose per gram
- Radioactivity biodistribution, Muscle ([2]; 6 h): 1.43±0.28 % injected dose per gram
- Radioactivity biodistribution, Pancreas ([2]; 6 h): 4.97±1.31 % injected dose per gram
- Radioactivity biodistribution, Spleen ([2]; 6 h): 4.94±1.51 % injected dose per gram
- Radioactivity biodistribution, Stomach ([2]; 6 h): 0.97±0.46 % injected dose per organ
- Radioactivity biodistribution, Tumor ([2]; 6 h): 7.31±1.12 % injected dose per gram
- T/B (tumor to blood ratio) ([2]; 6 h): 0.88±0.14
- Radioactivity biodistribution, Blood ([2]; 24 h): 1.61±0.27 % injected dose per gram
- Radioactivity biodistribution, Heart ([2]; 24 h): 3.78±0.39 % injected dose per gram
- Radioactivity biodistribution, Intestine ([2]; 24 h): 3.70±1.06 % injected dose per gram
- Radioactivity biodistribution, Kidneys ([2]; 24 h): 10.81±2.35 % injected dose per gram
- Radioactivity biodistribution, Liver ([2]; 24 h): 10.51±0.89 % injected dose per gram
- Radioactivity biodistribution, Lung ([2]; 24 h): 2.50±0.44 % injected dose per gram
- Radioactivity biodistribution, Muscle ([2]; 24 h): 1.02±0.16 % injected dose per gram
- Radioactivity biodistribution, Pancreas ([2]; 24 h): 3.92±0.68 % injected dose per gram
- Radioactivity biodistribution, Spleen ([2]; 24 h): 3.92±0.24 % injected dose per gram
- Radioactivity biodistribution, Stomach ([2]; 24 h): 0.54±0.07 % injected dose per organ
- Radioactivity biodistribution, Tumor ([2]; 24 h): 4.25±0.79 % injected dose per gram
- T/B (tumor to blood ratio) ([2]; 24 h): 2.74±0.89
- Blood half-life, Fast [3]: 5.6×10 min
- Blood half-life, Slow [3]: 7.17 h
- Clearance (total clearance) [3]: 0.0079 mL/min
- Distribution volume [3]: 1.94 mL
- Mean residence time [3]: 250 min
- Slower washout rate from the tumor (k2) compared to MDAPCV (HT1080 tumor xenograft): approximately seven-fold
- K1, rate constant for transfer from blood to tumor, Mean (HT1080 tumor xenograft; iv): 0.0013 mL/g/min
